Measurements from patent US20260103686A1, “MICROBIAL STRAIN, PROTEIN, AND METHOD FOR PRODUCING GALLIC ACID USING MICROBIAL STRAIN OR PROTEIN” (UNIVERSITY OF TSUKUBA, priority 2022, published 2026).

System: O=C(O)c1ccc(O)c(O)c1
Assay: purified protein, by the assay type
Conditions: other: PCA substrate, 200 µM NADPH, 10 µM FAD, pH 7.9, 25° C., 340 nm
Experimental: The cell-free extracts were subjected to a HisTrap HP column (GE healthcare) which was equilibrated with an equilibration buffer (20 mM Tris-HCl buffer (pH 7.9), 20 mM imidazole), and then fractions eluted with an eluent (20 mM Tris-HCl buffer (pH 7.9), 500 mM imidazole) were collected.
The protein concentrations of the purified enzyme liquids were measured using Bio-Rad Protein Assay Dye Reagent Concentrate (Bio-Rad, USA), and the purified enzyme liquids were diluted to 1 of mg/mL with a buffer. Thus, purified enzyme liquids protocatechuic acid 5-hydroxylases, HgPobA, HyPobA, PoPobA, HgPobA-TY and PaPobA, were prepared.
Using the purified enzyme liquids of HgPobA, HgPobA-TY, PoPobA, HyPobA and PaPobA described above, a reaction kinetic analysis was conducted.

In the case of “Pseudomonas aeruginosa-derived PobA (PaPobA), p-hydroxybenzoate hydroxylase, wild type, SEQ ID NO: 28 (Pseudomonas aeruginosa PAO1)”, the Km is reported as 0.14 mM.
